The supplement of paper PMC9170038

Test system: MS2 coat protein
Test: apparent KD of MS2 coat protein; designed switch direction (-1 OFF switch, 1 ON switch): -1; higher = weaker reporter binding
Method in brief: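 Stalled E. coli RNA polymerase transcribed designed RNA switches on Illumina chips, which were then titrated with SNAP-549-labelled MS2 coat protein, doubling from 0.7 or 1.5 nM to 3 µM. Steps lasted from 0.8–1.5 h at the lowest concentration to 10–20 min at the highest. The apparent KD is each design's median over clusters of curve-fitted normalised fluorescence.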

[1] = input ligand: microRNA oligo, concentration not stated
[2] = Eterna round: R95, input ligand: FMN 200 uM
[3] = Eterna round: R95, input ligand: microRNA oligo, concentration not stated
[4] = Eterna round: R95, input ligand: none

Sequence	apparent KD of MS2 coat protein (input ligand: FMN 200 uM)	apparent KD of MS2 coat protein [1]	apparent KD of MS2 coat protein (input ligand: none)	apparent KD of MS2 coat protein [2]	apparent KD of MS2 coat protein [3]	apparent KD of MS2 coat protein [4]
ACAAGCUUUUAGUUCGUCUUAUACACUCCUAAUAAGAAAACAUGAGGAUCACCCAUGUAAGAAAUAAGAACUCAUGU [Sesor Array 2 - Jieux - Sensor v3, turn-off variant 2] (Eterna round: R96, puzzle: Sensor v3, turn-off variant 2)	0.186 µM	0.297 µM	0.143 µM	–	–	–
AGUGUGUGGCAGGAUAUUCUGUUGAUUAGGACAGAAGAAGGGUCUACAUGAGGAUCACCCAUGUAAGCGGUUGA [Ex6 #36] (Eterna round: R97, puzzle: Exclusion 6)	0.275 µM	–	0.268 µM	–	–	–
GAUUAUGCGAGCUUUAGGGACAUGAGGAUCACCCAUGUUCGUCUUAUUGAUCUAGGUGCACUGACAUACCUAAAUCU [JMF 89] (puzzle: Sensor v3, turn-off variant 1)	–	–	–	0.0285 µM	0.0379 µM	0.0298 µM
GAUCAACAUGAGGAUCACCCAUGUGAGGAUAUAGACCUAAGGCGCAAGCUAUGGGACUCUAGAAGGCGCGGAAU [Eternabot (L2) Solution 93] (Eterna round: R97, puzzle: Exclusion 1)	0.04 µM	–	0.0366 µM	–	–	–
GUGAUAACCAAGCUAGCCAACAUGAGGAUCACCCAUGUGUUCGAUAUGCAACAGGUAUGAUCUUAAUUUGCUCGAUC [Eternabot (Original) Solution 20] (Eterna round: R97, puzzle: Sensor, turn-off variant 1)	0.0443 µM	–	0.0485 µM	–	–	–
CCUCUACAUGAGGAUCACCCAUGUGAGGAUAUCUCGGAGCAACCACUUAAGGCGCUCCAGAGAAGGCACGUGUA [Erralaqu] (puzzle: Exclusion 1)	–	–	–	–	0.0195 µM	–
GGUAGAGAGCAGGAUAUCUUGGGUAAGUAUCGUAGAGAAGGGCUCACAUGAGGAUCACCCAUGUGGUCCUAGAU [JL Dibiri mod 04] (puzzle: Exclusion 6)	–	–	–	–	0.0118 µM	–
UUCAUGUGAGGAUAUAGUACUUCUUCUAUUAUUAUUGAGUACUAGAAGGCACAUGAGGAUCACCCAUGUAGUAC [Ex4 - 3 - 43] (Eterna round: R96, puzzle: Exclusion 4)	0.0218 µM	0.0221 µM	0.0391 µM	–	–	–
UGGAUAAUUGGAGGAUAUGCGACAUAAACCAUUGUAGAAGGCCAACAUGAGGAUCACCCAUGUGUCCCAGAGACCACAGAUCCA [Eternabot solution 9] (Eterna round: R96, puzzle: Exclusion NG 1)	0.0369 µM	0.0222 µM	0.0282 µM	–	–	–
AGCUCACAUGAGGAUCACCCAUGUCAGGAUAUCGACUGAACAGCUUCGGCUGUUCAGUCGAGAAGGGACAAUUA [Brourdxlusion 5 - Jieux - Exclusion 1] (Eterna round: R97, puzzle: Exclusion 1)	0.182 µM	–	0.0597 µM	–	–	–
AUUUUGUGAGGAUAUUAGAAGUAGAAAGUUGGUAGUAUUGCUGAGAAGGCACAUGAGGAUCACCCAUGUACAAC [JR_Ex4_Sub036] (Eterna round: R97, puzzle: Exclusion 4)	0.0176 µM	–	0.0167 µM	–	–	–
ACAAAGGUAGGAUAUCGGACUAUGGACAUGAGGAUCACCCAUGUGCGUCCAGUGUCCAACCGAGAAGGACCCAAAA [Beinge] (puzzle: Exclusion 5)	–	–	–	0.0832 µM	0.0861 µM	0.0916 µM
GAUAGAGAGCAGGAUAUCUUAGAAAUGUAUUAUAGAGAAGGGCUCACAUGAGGAUCACCCAUGUGGUCCUAGAU [JL Dibiri mod 15] (puzzle: Exclusion 6)	–	–	–	–	0.016 µM	–
UUUUAACAUGAGGAUCACCCAUGUGAGGAUAUCGAAAUUUAUAUUAAUAUUAAUAUAACGAGAAGGCACAUUUU [JMF 23] (puzzle: Exclusion 1)	–	–	–	–	0.0472 µM	–
GGUACUAACACGAAAGUGUUAGUACAAUAAGCUUGUGAAACAUGAGGAUCACCCAUGUCCUCAUAAGCUCGUCUUAG [salish99_TOv2_r3_005] (puzzle: Sensor v3, turn-off variant 2)	–	–	–	0.0134 µM	0.392 µM	0.0123 µM
UGAGUGCUGCGAGGAUAUACAUGAGGAUCACCCAUGUAAAAGUGUGAGGCUUUGCCUCACACUAUGUAGAAGGCGCAGUACUCU [JL ENG2 1.04] (Eterna round: R96, puzzle: Exclusion NG 2)	0.0176 µM	0.0106 µM	0.0136 µM	–	–	–
AAAUCCGCUGAGGAUAUCAUGACUGAGAGGUCAUGAGAAGGCGGUACAUGAGGAUCACCCAUGUCUAUGGGCAA [Ex-6 Malc#28] (puzzle: Exclusion 6)	–	–	–	–	0.386 µM	–

Sequence	apparent KD of MS2 coat protein (input ligand: FMN 200 uM)	apparent KD of MS2 coat protein [1]	apparent KD of MS2 coat protein (input ligand: none)	apparent KD of MS2 coat protein [2]	apparent KD of MS2 coat protein [3]	apparent KD of MS2 coat protein [4]
CGAUAAAUGACAGGAUAUUACGCUAAUUGGGACCCUUAACCGACAUGAGGAUCACCCAUGUUUUAUAAGAAGGGUCGUUUGUCA [Eternabot solution 47] (Eterna round: R96, puzzle: Exclusion NG 2)	0.021 µM	0.0112 µM	0.0132 µM	–	–	–
ACAUGAGGAUCACCCAUGUGAAACCAAUGGCUGACUUUGAGACAGGAUAUUCGUGCAUAUCAAACGAAGAAGGGUCAUUACUGG [Deportation 95 - Jieux - Exclusion NG 3] (Eterna round: R96, puzzle: Exclusion NG 3)	0.0568 µM	0.0411 µM	0.0468 µM	–	–	–
GCAAGCUUUUUGGUUUUCAACAUGAGGAUCACCCAUGUUCGUCUUAUACCCGGGCCCGGGCGGUGCCCGGGCCCGGG [-40, -68 kcal, A 14%] (Eterna round: R97, puzzle: Sensor, turn-off variant 1)	0.0182 µM	–	0.0217 µM	–	–	–
UCGCUGCGAGGAUAUACGUGCGCGCGCUUUCGUUUGCGCGUACAUGAGGAUCACCCAUGUAGAAGGCGCGCUGC [Apr-15 SS2-6] (puzzle: Exclusion 2)	–	–	–	–	0.0127 µM	–
CCAAUGUAAGGAUAUGACAAUGGUAUCUUCGGAUACCAUUGUCAGAAGGUACAUGAGGAUCACCCAUGUAUAAA [Ex4-3: 10] (puzzle: Exclusion 4)	–	–	–	–	0.0173 µM	–
UAAUAUAGUGUGAGGAUAUGCUGGUCCUUGGAUCAGCAGAAGGCACAUGAGGAUCACCCAUGUAGUUUAUUUUA [Mat - Exclusion 4 - JL Mod - D2] (puzzle: Brourd's mod of Exclusion 4)	–	–	–	0.141 µM	0.0282 µM	0.0283 µM
GGCUGCAAUGUAGGAUAUCUGCACGAUUAGUGCAGAGAAGGACAUGAGGAUCACCCAUGUAUAGUAGCUUCGGCUACAGCAGCC [ENG1-D1] (Eterna round: R96, puzzle: Exclusion NG 1)	0.0171 µM	0.0142 µM	0.0156 µM	–	–	–
AGAUGUAGAUACCGAUCCUACAUGAGGAUCACCCAUGUAGCUAGACGUGCGCGCGUCGCUCGUCAGACUACCAGUAG [salish99_TOv1_r3_092] (puzzle: Sensor v3, turn-off variant 1)	–	–	–	0.33 µM	0.296 µM	0.157 µM
ACCCAACAUGAGGAUCACCCAUGUCAGGAUAUCCAAGCGAAAGCAAAAGCGAAAGCAAGGAGAAGGGACAAUGG [ChP 04-04-2015 #7] (puzzle: Exclusion 1)	–	–	–	0.134 µM	0.161 µM	0.276 µM
GAGUGACAUGAGGAUCACCCAUGUGAGGAUAUCGGACGGACCUAGUUAACAUCCGCCGCGAGAAGGCACAUCGG [Exclusion 1 V23] (puzzle: Exclusion 1)	–	–	–	–	0.136 µM	–
GUACCCAAAGGAUAUACUUGAGGAUCACCCAAGUAUGUCGCUUGGGCACGGUAAAGGAGUAGAAGGUUGGGAAG [Aedti] (Eterna round: R97, puzzle: Exclusion 3)	0.0125 µM	–	0.0118 µM	–	–	–
UGAGCUACAGGAUAUAUAUGGCGACCGUGAGGUCGAAGGUUACAUGAGGAUCACCCAUGUAGAAGGGUAGUUCU [Mat - Exclusion 2 - JL Mod - D17] (Eterna round: R97, puzzle: Exclusion 2)	0.225 µM	–	0.0862 µM	–	–	–
UGAUCAGACCGAGGAUAUACAUGUAGGACCCACGUGAGUGGGUCCAUUACAUGAGGAUCACCCAUGUAGAAGGCGGUCUGAUCU [JL ENG2 1.90] (Eterna round: R96, puzzle: Exclusion NG 2)	0.313 µM	0.0977 µM	0.139 µM	–	–	–
AUAAAGCAGUCAGGAUAUAUGAGAGGUCGUUUCAUAGAAGGGACAGCUCGUGCGUGGCUGACAUGAGGAUCACCCAUGUACGUU [Enrizala] (Eterna round: R96, puzzle: Exclusion NG 1)	0.229 µM	0.0391 µM	0.0376 µM	–	–	–
GGCUUACAUGAGGAUCACCCAUGUCAGGAUAUAGAACGAUGGCGGAACGCCAUCGCCGCUAGAAGGGACCGGUG [Eternabot (Original) Solution 25] (Eterna round: R97, puzzle: Exclusion 1)	0.142 µM	–	0.078 µM	–	–	–
GUUGUUCGAGGAUAUACAUGAGGAUCACCCAUGUGUGUUGUGGGCGACGUUCGUUUAUGUAGAAGGCGGGCGGC [-27.2, -23.9 kcal, 19% A] (Eterna round: R97, puzzle: Exclusion 3)	0.0782 µM	–	0.0501 µM	–	–	–
UUUUUGUGAGGAUAUCAGUAGUAAAUAAAUAAAAUUACUACUGAGAAGGCACAUGAGGAUCACCCAUGUUUUUU [Mat - Exclusion 4 - Mod of Salish - D68] (puzzle: Exclusion 4)	–	–	–	–	0.0418 µM	–
